One molecule from patent publication US20130209489A1 (Amgen, published 2013) can be followed below.

Broadly, the Kd is the concentration at which binding is half-saturated. A high value points to weaker binding.

The target in one assay is T1, BMP10 (UniProt O95393 317-424).
T1 sequence (looked up): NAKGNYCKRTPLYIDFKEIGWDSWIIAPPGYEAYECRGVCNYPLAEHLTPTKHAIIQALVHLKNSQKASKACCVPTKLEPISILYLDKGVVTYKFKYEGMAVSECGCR
The assay can be described thus: Biacore SPR, ligand flowed over immobilized antibody. The procedure: (§1) Binding specificity analysis was carried out for 12A5-5 using Biacore™, a label-free surface plasmon resonance (SPR) based technology for studying biomolecular interactions in real time (GE Healthcare, Chalfont St. Giles, UK). 12A5-5, and ActRIIB/Fc were made in house, TGFbetaR11/Fc and BMPR-1A/Fc were from R & D Systems (Minneapolis, Minn.). […] Ten nanomolar of each of the ligands was flowed over immobilized high density antibody and receptor surfaces. Binding of Myostatin, GDF11, GDF3, Activin A, Activin AB, Activin AC, TGF-beta1, BMP4, BMP9, and BMP10 to their corresponding receptors was tested and used as control to normalize the signals of the ligands binding to 12A5-5 and the other receptors.
For orientation: Surface plasmon resonance follows binding to a sensor surface in real time, without labels.

Another assay concerns the target T2, Activin A (UniProt P08476 311-426).
T2 sequence (looked up): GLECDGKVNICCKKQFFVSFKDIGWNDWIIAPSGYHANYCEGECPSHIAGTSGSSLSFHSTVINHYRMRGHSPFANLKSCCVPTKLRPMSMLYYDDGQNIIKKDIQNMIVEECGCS
The description is as above. How it is done:
as §1

The target in another assay is T3, BMP4 (UniProt P12644 293-408).
T3 sequence (looked up): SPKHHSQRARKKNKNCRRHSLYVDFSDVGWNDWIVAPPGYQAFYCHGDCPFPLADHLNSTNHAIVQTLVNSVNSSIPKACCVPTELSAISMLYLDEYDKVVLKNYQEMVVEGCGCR
Described as above. How it is done:
as §1

A further assay has as its target T4, BMP9 (UniProt Q9UK05 320-429).
T4 sequence (looked up): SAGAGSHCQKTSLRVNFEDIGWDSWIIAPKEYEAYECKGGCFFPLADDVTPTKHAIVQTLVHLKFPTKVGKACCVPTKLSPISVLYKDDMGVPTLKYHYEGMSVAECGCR
The description is as above. The procedure:
as §1

In a further assay the target is T5, Activin AC (UniProt P08476 311-426; P55103 237-352).
T5 construct: the two chains follow from the usual meaning of Activin AC
T5 sequence (looked up) 1: T2 sequence (looked up)
T5 sequence (looked up) 2: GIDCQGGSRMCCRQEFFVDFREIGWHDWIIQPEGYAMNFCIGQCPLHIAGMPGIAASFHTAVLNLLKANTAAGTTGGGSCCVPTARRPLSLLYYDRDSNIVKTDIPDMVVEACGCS
The assay is described as above. The procedure: as §1

The next assay has as its target TGF-beta1 (UniProt P01137 279-390). Described as above. The procedure:
as §1

The target of another assay is T6, GDF3 (UniProt Q9NR23 251-364).
T6 sequence (looked up): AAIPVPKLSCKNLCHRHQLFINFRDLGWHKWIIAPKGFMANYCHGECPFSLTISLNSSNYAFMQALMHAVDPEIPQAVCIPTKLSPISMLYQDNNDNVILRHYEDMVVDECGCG
The description is as above. The procedure:
as §1

Another assay concerns the target T7, Activin AB (UniProt P08476 311-426; P09529 293-407).
T7 construct: the two chains follow from the usual meaning of Activin AB
T7 sequence (looked up) 1: T2 sequence (looked up)
T7 sequence (looked up) 2: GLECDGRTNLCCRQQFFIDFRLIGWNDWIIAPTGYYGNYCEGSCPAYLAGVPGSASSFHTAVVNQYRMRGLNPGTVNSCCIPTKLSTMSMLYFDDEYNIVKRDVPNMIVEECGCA
The assay is described as above. The procedure: as §1

Another assay has as its target T8, mature human myostatin (human, UniProt O14793 267-375).
T8 construct: they are put on this molecule; also called GDF-8; recombinant mature myostatin
In words: KinExA solution equilibrium assay, myostatin-coated beads. An excerpt:
Solution-based equilibrium-binding assays using KinExA® technology (Sapidyne Instruments, Inc.) are employed to determine the dissociation equilibrium (Kd) of myostatin binding to antibody molecules. This solution-based assay is considered to be more sensitive than the BIAcore® assay in some instances. Reacti-Gel 6×(a highly reactive, cross-linked 6% agarose bead for immobilization of amine-containing ligands; Thermo Scientific Pierce, Rockford, Ill.) is pre-coated with about 50 microG/ml myostatin overnight, and then blocked with bovine serum albumin (BSA; 1 mg/ml). Antibody samples (10 pM, and 30 pM) were incubated with various concentrations (0.5 pM to 5 nM) of myostatin in sample buffer containing 0.1 mg.ml BSA at room temperature for eight hours before being run through the myostatin-coated beads. The amount of the bead-bound antibody is quantified by fluorescent (Cy5) labeled goat anti-human-Fc antibody at 1 mg/ml in SuperBlock® (an optimized protein-based solution for blocking excess binding sites; Thermo Scientific Pierce, Rockford, Ill.). The binding signal is proportional to the concentration of free antibody at equilibrium with a given myostatin concentration. Kd is obtained from the nonlinear regression of the competition curves using a dual-curve one-site homogeneous binding model provided in the KinExA™ software (Sapidyne Instruments, Inc.).
On the technique in general: Kinetic exclusion samples the free partner from a solution-phase mixture.

Assay [1] deals with T9, Peptide P (chymotryptic peptide, antibody-protected Cys knot, dimer) (human).
T9 construct: Formed when myostatin pre-incubated with 12A5-5 was digested with chymotrypsin
T9 chain 1: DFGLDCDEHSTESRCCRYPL
T9 chain 2: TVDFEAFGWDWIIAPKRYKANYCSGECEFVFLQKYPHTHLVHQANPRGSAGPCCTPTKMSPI
T9 chain 3: GKIPAMVVDRCGCS
In words: BIAcore competition: 12A5-5 pre-incubated with the HPLC peptide fraction in solution, then passed over immobilized human myostatin; low response means the peptide binds the antibody. The procedure: (§2) The strategy for characterizing the epitopes bound by anti-myostatin neutralizing monoclonal antibodies was to use various CNBr—, LysC— and chymotrypsin-generated human myostatin peptides and determine which peptides could be bound by the antibody. In one aspect, this was tested in a BIAcore® competition binding assay where the binding of 12A5-5 to human myostatin immobilized on a BIAcore® chip was determined in the presence or absence of each of the various isolated HPLC peptide fractions. In the absence of any competing peptides, 12A5-5 was able to bind the human myostatin on the chip and produce an RU (resonance unit) response. […] This general procedure was repeated individually for each peptide. […] These binding patterns, coupled with the known identity of the various myostatin peptides were used to determine which regions of myostatin were important (or necessary) for the binding of antibody 12A5-5.

Assay [2] deals with T10, Peptide G (LysC peptide, Cys knot, dimer) (human).
T10 construct: Four LysC peptides held together by disulfide bonds (cystine knot), dimeric through Cys73 (19.5 kD)
T10 chain 1: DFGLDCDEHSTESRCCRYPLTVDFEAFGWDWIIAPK
T10 chain 2: ANYCSGECEFVFLQK
T10 chain 3: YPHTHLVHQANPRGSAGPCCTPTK
T10 chain 4: IPAMVVDRCGCS
Described as above. How it is done:
as §2

Chain of TGF-beta1 (P01137 279-390 limits assumed): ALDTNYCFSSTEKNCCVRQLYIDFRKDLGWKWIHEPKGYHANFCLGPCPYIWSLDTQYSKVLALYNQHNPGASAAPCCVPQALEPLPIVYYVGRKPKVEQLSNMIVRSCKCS

B1: anti-myostatin neutralizing monoclonal antibody 12A5-5 (antibody, V domains shown)
VH: EVQLVESGGGLVQPGGSLRLSCAASGFTFSRYWMNWVRQAPGKGLEWVAQIRLKSDNYATHYAESVKGRFTISRDNAKNSLYLQMNSLRAEDTAVYYCTEGLDYWGQGTTVTVSS
VL: DIQMTQSPSSLSASVGDRVTITCKASQDINKYVAWYQQKPGKAPKLLIYYTSWLQPGVPSRFSGSGSGTDFTFTISSLQPEDIATYYCLQYDNLLYTFGQGTKLEIK
notes: in the KinExA assay it was detected with a goat anti-human-Fc antibody, so it carries a human Fc; also called Mab 12A5-5; MAb 12A5-5
As to B1, the binding result in the assay with BMP10, with Activin A, with BMP4, with BMP9, with Activin AC and with TGF-beta1 was “no binding (tested: Ten nanomolar of each of the ligands)” in each case. Further, the binding result with GDF3 was “no binding (tested: Ten nanomolar of each of the ligands)”; in the assay with Activin AB, “no binding (tested: Ten nanomolar of each of the ligands)”; in assay [1], “binds”; in [2], “binds”. The molecule also had a dissociation constant (Kd) with mature human myostatin of around 2 pM.
